“Also recorded” adds a separate entry of the source.
Key:
[1] = tested on: NIH3T3 cells transformed with FGFR2-BICC1, FGFR2-AHCYL1, and FGFR2-PHGDH fusions; test: growth of NIH3T3 cells transformed with FGFR2 fusions (FIG. 5); assay type: cell-based
Text: (§1) NIH3T3 cells transformed with FGFR2-BICC1, FGFR2-AHCYL1, and FGFR2-PHGDH fusions were also sensitive to BGJ398 treatment (FIG. 5).

[2] = tested on: FGFR2-fusion transformed BaF3 cells; test: viability assay of BaF3 cells expressing FGFR2 fusions (FIG. 2); assay type: cell-based
Text: A table showing IC50 (μM) is also provided.
as §1

[3] = tested on: FGFR2 fusion-positive ICC; conditions: phase II trial; cited from earlier work
[4] = tested on: BaF3 cells overexpressing FGFR2-PHGDH fusion; test: BaF3 FGFR2-PHGDH cell survival, CellTiter-Glo (FIGS. 18A-18D); assay type: cell-based; conditions: no IL3, no FGF, 5 days, 0.013-1 μM
Text: FIGS. 18A-18D present graphs showing the ability of biparatopic antibodies to impact FGFR2-fusion driven cell growth in BaF3 cells molecularly engineered to overexpress FGFR2-PHGDH fusion. […] These biparatopic antibodies were also more efficient at inhibiting growth of BaF3 cells overexpressing the FGFR2-PHGDH fusion compared to their parental antibodies. The nomenclature of the biparatopic antibodies is based on the designations and descriptions of the parental antibodies presented in FIG. 7B.
(§2) The impact of biparatopic antibodies on FGFR2-fusion driven cell growth was assessed in a cell-based assay using biparatopic antibodies that bind to the ECD of FGFR2 and generated as described supra (Example 4). As described herein, the biparatopic antibodies were added to cultures of cells (e.g., NIH3T3 cells or BaF3 cells) molecularly engineered to overexpress FGFR2 fusion.
In particular, for assays using BaF3 cells (FIGS. 18A-18D), BaF3 cells overexpressing empty vector control or FGFR2-PHGDH fusion construct were plated in the absence of IL3 and FGF in 384 black well plates at a concentration of 750 cells/well overnight. […] The cell survival was measured using CellTiter-Glo at 5 days post treatment and the IC50 curves were generated using non-linear fit in PRISM 9 software. […]

[5] = biological target: FGFR2b alpha IIIb antigen (UniProt P21802); test: SPR (Biacore), KD matrix by the two arms; unit M from FIG. 17B and paragraph 180; FIG. 17B prints 9.1E-10 for the same antibody
[6] = tested on: NIH3T3 cells overexpressing FGFR2-BICC1 fusion; test: NIH3T3 FGFR2-BICC1 cell confluency, Incucyte (FIGS. 19A-19E); assay type: cell-based; conditions: 60 hours, 0.013-1 μM
Method: FIGS. 19A-19E present graphs showing the ability of biparatopic antibodies to impact FGFR2-fusion driven cell growth in NIH3T3 cells molecularly engineered to overexpress FGFR2-BICC1 fusion. […] The nomenclature of the biparatopic antibodies is based on the designations and descriptions of the parental antibodies presented in FIG. 7B.
as §2
For assays using NIH3T3 cells, (FIGS. 19A-19E), NIH3T3 cells overexpressing a FGFR2-BICC1 fusion construct were plated in 384 black well plates at a concentration of 1000 cells/well overnight. 6 parental antibodies and 13 biparatopic antibodies were added to each well in duplicates at various concentrations ranging from 1 μM to 0.013 μM (1 μM, 0.833 μM, 0.600 μM, 0.450 μM, 0.316 μM, 0.233 μM, 0.166 μM, 0.125 μM, 0.091 μM, 0.066 μM, 0.048 μM, 0.035 μM, 0.025 μM, 0.018 μM, and 0.013 μM). The cell confluency was measured using Incucyte at 60 hours post treatment, and the IC50 curves were generated using non-linear fit in PRISM 9 software.

[7] = biological target: FGFR2b alpha IIIb antigen (UniProt P21802); test: SPR (Biacore), antibody immobilized, FGFR2b alpha IIIb in flow

## CCN1CCN(c2ccc(Nc3cc(N(C)C(=O)Nc4c(Cl)c(OC)cc(OC)c4Cl)ncn3)cc2)CC1 [NVP-BGJ398]
[1]
  sensitivity of NIH3T3 cells transformed with FGFR2 fusions: sensitive
[2]
  sensitivity of FGFR2-fusion transformed BaF3 cells (viability): sensitive; also recorded: showed sensitivity
[3]
  efficacy in patients with FGFR2 fusion-positive ICC: encouraging efficacy

B1: Biparatopic antibody B/N12 (bispecific antibody, V domains shown)
VH 1: EVQLLESGGGLVQPGGSLRLSCAASGFTFSSYAMSWVRQAPGKGLEWVSAISGSGTSTYYADSVKGRFTISRDNSKNTLYLQMNSLRAEDTAVYYCARVRYNWNHGDWFDPWGQGTLVTVSS
VL 1: QSVLTQPPSASGTPGQRVTISCSGSSSNIGNNYVSWYQQLPGTAPKLLIYENYNRPAGVPDRFSGSKSGTSASLAISGLRSEDEADYYCSSWDDSLNYWVFGGGTKLTVLG
VH 2: QVQLVQSGAEVKKPGESLKISCKGSGYSFTNYYIHWVRQMPGKGLEWMGAIYPDNSDTTYSPSFQGQVTISADKSISTAYLQWSSLKASDTAMYYCARGADIWGQGTLVTVSS
VL 2: DIQMTQSPSSLSASVGDRVTITCRASQDIDPYLSNWYQQKPGKAPKLLIYDASNLQSGVPSRFSGSGSGTDFTLTISSLQPEDFATYYCQQTTSHPYTFGQGTKVEIK
[4]
  inhibition of growth of BaF3 cells overexpressing FGFR2-PHGDH compared to control cells overexpressing empty vector: more efficient and potent; also recorded: more effective and potent
[5]
  Kd: 0.82 nM
[6]
  inhibition of growth of NIH3T3 cells overexpressing FGFR2-BICC1 compared to parental antibodies: more efficient and potent; also recorded: more effective and potent
[7]
  Binding Stoichiometry: 1.3
  Kd: 0.91 nM
